According to PMC8664846, “Heterogeneous dissociation process of truncated RNAs by oligomerized Vasa helicase” (Communications Biology, 2021):

Assays:
[1] = biological target: T1, Siwi-piRISC (FLAG-Siwi loaded with piRNA) (Bombyx mori, UniProt A8D8P8 1-899); assay: single-molecule two (or three)-colour colocalisation (TIRF microscopy); premix of 10 nM biotinylated ATTO647N target RNA, 625 nM TMR-Vasa and 380 nM Siwi fixed on the surface by avidin-biotin through the target RNA; exogenous piRNA-4; assay buffer with oxygen scavenger; no ATP; details: both partners purified
T1 construct: Siwi (Silkworm Piwi), PIWI protein of Bombyx mori; In the assay Siwi carried piRNA (exogenous piRNA-4) and was held on the glass through the biotinylated, ATTO647N-labelled target RNA; the only protein chain is Siwi; also called Silkworm Piwi; source: BmN4 cells, purified (anti-FLAG gel column)
T1 sequence (looked up): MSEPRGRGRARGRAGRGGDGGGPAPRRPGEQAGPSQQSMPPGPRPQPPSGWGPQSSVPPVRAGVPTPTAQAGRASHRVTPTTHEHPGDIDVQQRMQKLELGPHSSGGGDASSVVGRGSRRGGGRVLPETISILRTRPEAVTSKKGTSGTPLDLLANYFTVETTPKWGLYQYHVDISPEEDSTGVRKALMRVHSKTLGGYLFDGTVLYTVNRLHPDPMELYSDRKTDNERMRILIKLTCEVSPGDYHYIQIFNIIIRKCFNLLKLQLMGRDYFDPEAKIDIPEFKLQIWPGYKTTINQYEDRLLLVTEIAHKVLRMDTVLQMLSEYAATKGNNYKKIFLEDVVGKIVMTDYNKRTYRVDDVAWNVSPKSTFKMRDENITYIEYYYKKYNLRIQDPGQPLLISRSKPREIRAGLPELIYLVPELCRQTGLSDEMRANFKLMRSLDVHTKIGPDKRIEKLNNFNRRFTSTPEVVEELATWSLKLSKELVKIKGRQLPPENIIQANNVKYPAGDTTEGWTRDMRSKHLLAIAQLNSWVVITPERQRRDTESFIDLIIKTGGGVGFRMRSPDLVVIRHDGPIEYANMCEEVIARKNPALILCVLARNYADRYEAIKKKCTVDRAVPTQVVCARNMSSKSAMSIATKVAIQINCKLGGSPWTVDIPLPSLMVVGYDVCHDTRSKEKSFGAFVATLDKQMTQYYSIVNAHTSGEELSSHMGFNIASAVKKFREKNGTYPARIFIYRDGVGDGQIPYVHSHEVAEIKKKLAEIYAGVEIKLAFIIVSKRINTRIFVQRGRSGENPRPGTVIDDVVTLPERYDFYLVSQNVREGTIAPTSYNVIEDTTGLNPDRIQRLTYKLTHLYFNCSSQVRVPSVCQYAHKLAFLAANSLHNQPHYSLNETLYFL

[2] = biological target: the molecule itself; assay: single-molecule fluorescence intensity counting (TIRF microscopy); TMR-labelled Vasa adsorbed on poly-L-lysine-coated glass; number of molecules in a spot from the intensity of a single TMR; 30 mM HEPES pH 7.3, 150 mM potassium acetate, 5 mM magnesium acetate, 0.1% NP-40, 500 uM TCEP, oxygen scavengers; with 5 ug/ml yeast RNA further oligomerization

binding result [1]: binds
B1: FLAG-Halo-Vasa (wild-type Bombyx mori Vasa) (enzyme, UniProt O01378 1-601, looked up)
chain: MDDDWDDSCEAVVVPPPPLQNHDSVDEGHSLSRGRGFPSFNEDDEKENGYGERRGRGGRGGGRGRGGRGGRGGSREQHSDYETNGDHDDRGRGERGRGRGRGGRGGGRGGGGGGGDRNDYEDNEIGENGETKKPVTYVPPEPTNDETEIFSSTISSGINFDKFDHIAVKVSGENPPRPIESFETANLRKYVLDNVLKAGYRKPTPIQKNAIPIIMSGRDLMGCAQTGSGKTAAFLVPIINMLLQDPKDLISENGCAQPQVIIVSPTRELTLQIFNEARKFSYGSVLKVAVAYGGTAVRHQGDNIARGCHILVATPGRLHDFVERNRVSFGSVRFVVLDEADRMLDMGFMPSIEKMMLHPTMVETTKRQTLMFSATFPEDIQHLAGRFLNNYLFVAVGIVGGASTDVEQIFIEVTKYEKRNSLKQLIEENDGKRILVFVETKRNADFIAAMLSEQQLLTSSIHGDRMQREREEALQNFKSGKHCILVATAVAARGLDIKNVDIVVNYDLPKSIDEYVHRIGRTGRVGNRGKAVSFYDSDQDLALVADLSKILRQADQSVPDFLKGGGTATFKGNKYGGSDVRNFNNANTAVVDQGQEPEEEW
modifications: TMR-labelled HaloTag ligand on the HaloTag; the immobilised copy in the aggregation measurement also labelled with Biotin-XX-NHS
notes: Vasa, ATP-dependent DEAD-box RNA helicase of Bombyx mori, wild type; Non-fluorescent Vasa was used only in RNA dissociation assays; also called WT-Vasa; TMR-Vasa; source: BmN4 cells, purified (anti-FLAG gel column); not shown: HaloTag, N-terminal, kept
stoichiometry N [2]: 2
